In IntAct's records for PubMed 32911434:

B1: Nuclear factor erythroid 2-related factor 2 (Homo sapiens), Q16236 (parent)
chain: MMDLELPPPGLPSQQDMDLIDILWRQDIDLGVSREVFDFSQRRKEYELEKQKKLEKERQEQLQKEQEKAFFAQLQLDEETGEFLPIQPAQHIQSETSGSANYSQVAHIPKSDALYFDDCMQLLAQTFPFVDDNEVSSATFQSLVPDIPGHIESPVFIATNQAQSPETSVAQVAPVDLDGMQQDIEQVWEELLSIPELQCLNIENDKLVETTMVPSPEAKLTEVDNYHFYSSIPSMEKEVGNCSPHFLNAFEDSFSSILSTEDPNQLTVNSLNSDATVNTDFGDEFYSAFIAEPSISNSMPSPATLSHSLSELLNGPIDVSDLSLCKAFNQNHPESTAEFNDSDSGISLNTSPSVASPEHSVESSSYGDTLLGLSDSEVEELDSAPGSVKQNGPKTPVHSSGDMVQPLSPSQGQSTHVHDAQCENTPEKELPVSPGHRKTPFTKDKHSSRLEAHLTRDELRAKALHIPFPVEKIINLPVVDFNEMMSKEQFNEAQLALIRDIRRRGKNKVAAQNCRKRKLENIVELEQDLDHLKDEKEKLLKEKGENDKSLHLLKKQLSTLYLEVFSMLRDEDGKPYSPSEYSLQQTRDGNVFLVPKSKKPDVKKN
partner: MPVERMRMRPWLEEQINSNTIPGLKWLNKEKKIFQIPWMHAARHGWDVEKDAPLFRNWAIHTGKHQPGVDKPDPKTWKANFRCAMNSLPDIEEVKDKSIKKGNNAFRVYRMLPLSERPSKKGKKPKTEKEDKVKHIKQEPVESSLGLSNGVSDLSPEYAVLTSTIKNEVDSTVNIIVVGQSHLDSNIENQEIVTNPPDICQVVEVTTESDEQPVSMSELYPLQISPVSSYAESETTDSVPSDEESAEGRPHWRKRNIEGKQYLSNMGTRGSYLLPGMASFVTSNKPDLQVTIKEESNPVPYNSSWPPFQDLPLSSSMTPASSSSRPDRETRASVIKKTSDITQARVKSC
B2: Nuclear factor erythroid 2-related factor 2 (Homo sapiens), Q16236 (parent)
chain: B1 chain
partner: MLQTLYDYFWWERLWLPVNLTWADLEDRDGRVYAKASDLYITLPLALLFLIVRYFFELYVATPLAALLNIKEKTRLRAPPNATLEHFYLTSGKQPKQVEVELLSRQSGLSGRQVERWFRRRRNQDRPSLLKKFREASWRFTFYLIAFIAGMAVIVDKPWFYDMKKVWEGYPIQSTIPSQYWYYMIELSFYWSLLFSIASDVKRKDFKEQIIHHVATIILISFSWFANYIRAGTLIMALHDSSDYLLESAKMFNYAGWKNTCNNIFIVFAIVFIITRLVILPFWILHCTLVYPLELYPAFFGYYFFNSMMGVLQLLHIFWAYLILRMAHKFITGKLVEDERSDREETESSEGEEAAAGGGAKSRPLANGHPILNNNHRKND
B3: Nuclear factor erythroid 2-related factor 2 (Homo sapiens), Q16236 (parent)
chain: B1 chain

Variants of: B1
Conditions: with irf2_human IRF2, P14316

Variant | effect of a mutation on the interaction
Y576E | decreasing interaction strength
Y576F | decreasing interaction strength
T559D | decreasing interaction strength
S408A | decreasing interaction strength

Variants of: B2
Conditions: with cers2_human CERS2, Q96G23

Variant | effect of a mutation on the interaction
Y576E | increasing interaction strength

Variants of: B3
Conditions: with brpf3_human BRPF3, Q9ULD4
brpf3_human BRPF3, Q9ULD4, sequence (Q9ULD4 whole entry): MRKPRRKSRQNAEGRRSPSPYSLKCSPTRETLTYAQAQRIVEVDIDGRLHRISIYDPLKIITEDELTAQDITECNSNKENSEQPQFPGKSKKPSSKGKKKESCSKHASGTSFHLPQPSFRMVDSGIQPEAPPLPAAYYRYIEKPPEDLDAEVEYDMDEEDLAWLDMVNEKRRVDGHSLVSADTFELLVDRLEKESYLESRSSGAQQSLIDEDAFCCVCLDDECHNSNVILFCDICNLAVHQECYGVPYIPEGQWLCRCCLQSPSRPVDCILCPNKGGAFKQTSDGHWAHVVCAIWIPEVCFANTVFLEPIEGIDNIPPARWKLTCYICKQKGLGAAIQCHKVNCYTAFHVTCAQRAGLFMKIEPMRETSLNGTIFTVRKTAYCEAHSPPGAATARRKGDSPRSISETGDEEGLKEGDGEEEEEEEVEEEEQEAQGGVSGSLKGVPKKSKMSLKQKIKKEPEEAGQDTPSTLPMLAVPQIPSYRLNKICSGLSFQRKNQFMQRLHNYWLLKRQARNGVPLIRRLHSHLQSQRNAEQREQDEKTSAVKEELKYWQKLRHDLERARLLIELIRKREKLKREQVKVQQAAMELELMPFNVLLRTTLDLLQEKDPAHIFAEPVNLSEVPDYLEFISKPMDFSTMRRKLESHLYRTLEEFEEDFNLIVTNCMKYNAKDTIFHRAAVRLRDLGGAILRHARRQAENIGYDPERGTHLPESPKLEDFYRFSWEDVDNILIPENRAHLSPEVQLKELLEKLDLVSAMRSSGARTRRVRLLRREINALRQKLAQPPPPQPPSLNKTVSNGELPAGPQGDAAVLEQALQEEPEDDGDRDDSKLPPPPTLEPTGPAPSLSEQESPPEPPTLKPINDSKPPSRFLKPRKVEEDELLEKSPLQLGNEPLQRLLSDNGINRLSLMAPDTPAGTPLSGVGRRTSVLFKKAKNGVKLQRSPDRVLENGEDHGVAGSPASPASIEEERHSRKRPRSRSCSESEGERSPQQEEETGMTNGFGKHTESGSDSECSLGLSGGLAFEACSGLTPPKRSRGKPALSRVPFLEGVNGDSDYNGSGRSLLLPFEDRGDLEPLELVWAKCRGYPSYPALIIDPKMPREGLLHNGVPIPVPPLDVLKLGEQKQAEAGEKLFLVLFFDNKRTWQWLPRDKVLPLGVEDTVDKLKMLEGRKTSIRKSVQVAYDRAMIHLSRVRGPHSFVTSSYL

Variant | effect of a mutation on the interaction
S408A | decreasing interaction strength
Y576F | decreasing interaction strength
Y576E | decreasing interaction strength
T559D | decreasing interaction strength

Variants of: B3
Conditions: with ima1_human KPNA2, P52292

Variant | effect of a mutation on the interaction
Y576E | decreasing interaction strength
T559D | decreasing interaction strength

Variants of: B3
Conditions: with tf65_human RELA

Variant | effect of a mutation on the interaction
S40D | increasing interaction strength

Variants of: B3
Conditions: with apex1_human APEX1, P27695
apex1_human APEX1, P27695, sequence (P27695 whole entry): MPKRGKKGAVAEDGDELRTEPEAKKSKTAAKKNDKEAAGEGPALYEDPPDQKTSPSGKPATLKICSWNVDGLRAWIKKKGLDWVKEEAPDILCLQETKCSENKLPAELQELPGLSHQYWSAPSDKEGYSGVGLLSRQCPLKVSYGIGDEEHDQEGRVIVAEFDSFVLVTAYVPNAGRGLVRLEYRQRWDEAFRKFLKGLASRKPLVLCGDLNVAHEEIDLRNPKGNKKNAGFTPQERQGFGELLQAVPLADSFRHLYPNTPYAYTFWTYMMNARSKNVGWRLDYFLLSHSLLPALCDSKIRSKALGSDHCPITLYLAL

Variant | effect of a mutation on the interaction
S40D | increasing interaction strength
